US6884600B1, “Protein phosphatase-1 catalytic subunit interactions” (Medical Research Council London, priority 1996, dated 2005)

B1: M110-(R714-L934): chicken gizzard M110 fragment, residues 714-934 (protein)
chain: RSTRTREQENEEKEKEEKEKQDKEKQEEKKESETKDDDYRQRYSRTVEEPYHRYRPTSTSTSTSSTSSLSTSTSSLSSSSQLNRPNSLIGITSAYSRSGTKESEREGGKKEEEKEEDKSQPKSIRERRRPREKRRSTGVSFWTQDSDENEQEHQSDSEEGTNKKETQSDSLSRYDTGSLSVSSGDRYDSAQGRSGSQSYLEDRKPYCSRLEKEDSTDFKKLGTGRRFTTS
modifications: left off: large carriers
B2: MBP-M110-(R714-L934): maltose binding protein fusion of M110-(R714-L934) (protein)
chain: B1 chain
modifications: left off: large carriers
B3: MBP-M110-(R714-I1004): maltose binding protein fusion of M110-(R714-I1004) (protein)
chain: RSTRTREQENEEKEKEEKEKQDKEKQEEKKESETKDDDYRQRYSRTVEEPYHRYRPTSTSTSTSSTSSLSTSTSSLSSSSQLNRPNSLIGITSAYSRSGTKESEREGGKKEEEKEEDKSQPKSIRERRRPREKRRSTGVSFWTQDSDENEQEHQSDSEEGTNKKETQSDSLSRYDTGSLSVSSGDRYDSAQGRSGSQSYLEDRKPYCSRLEKEDSTDFKKLYEQILAENEKLKAQLHDTNMELTDLKLQLEKTTQRQERFADRSLLEMEKRVSGKSQYLLGGKKSSRKKDI
modifications: left off: large carriers
B4: MBP-M110-(K933-I1004): maltose binding protein fusion of M110-(K933-I1004) (protein)
chain: KLYEQILAENEKLKAQLHDTNMELTDLKLQLEKTTQRQERFADRSLLEMEKRVSGKSQYLLGGKKSSRKKDI
modifications: left off: large carriers
B5: M110 subunit: 110 kDa myofibrillar-binding subunit of PP1 (protein)
chain: MKMADAKQKRNEQLKRWIGSETDLEPPVVKRKKTKVKFDDGAVFLAACSSGDTEEVLRLLERGADINYANVDGLTALHQACIDDNVDMVKFLVENGANINQPDNEGWIPLHAAASCGYLDIAEYLISQGAHVGAVNSEGDTPLDIAEEEAMEELLQNEVNRQGVDIEAARKEEERIMLRDARQWLNSGHINDVRHAKSGGTALHVAAAKGYTEVLKLLIQARYDVNIKDYDGWTPLHAAAHWGKEEACRILVENLCDMEAVNKVGQTAFDVADEDILGYLEELQKKQNLLHSEKREKKSPLIESTANLDNNQTQKTFKNKETLIMEQEKNASSIESLEHEKADEEEEGKKDESSCSSEEEEDDDSESEAETDKAKTLANANTTSTQSASMTAPSVAGGQGTPTSPLKKFPTSTTKVSPKEEERKDESPASWRLGLRKTGSYGALAEITASKEAQKEKDSAGVIRSASSPRLSSSLDNKEKEKDGKGTRLAYVAPTIPRRLASTSDIDEKENRDSSASSIRSGSSYARRKWEEDVKKNSLNEGPTSLNTSYQRSGSFGRRQDDLVSSNVPSTASTVTSSAGLQKTLPASANTTTKSTTGSTSAGVQSSTSNRLWAEDSTEKEKDSVPTAVTVPVAPSVVNAAATTTAMTTATSGTVSSTSEVRERRRSYLTPVRDEESESQRKARSRQARQSRRSTQGVTLTDLQEAEKTIGRSRSTRTREQENEEKEKEEKEKQDKEKQEEKKESETKDDDYRQRYSRTVEEPYHRYRPTSTSTSTSSTSSLSTSTSSLSSSSQLNRPNSLIGITSAYSRSGTKESEREGGKKEEEKEEDKSQPKSIRERRRPREKRRSTGVSFWTQDSDENEQEHQSDSEEGTNKKETQSDSLSRYDTGSLSVSSGDRYDSAQGRSGSQSYLEDRKPYCSRLEKEDSTDFKKLYEQILAENEKLKAQLHDTNMELTDLKLQLEKTTQRQERFADRSLLEMEKRVSGKSQYLLGGKKSSRKKDI

Test system: M21 subunit
Test: Far Western blotting: interaction with the M21 subunit
Format: binding, chicken
Conditions: for recognised by digoxigenin-labelled M21 subunit in Far Western blotting: probe 0.2 μg/ml
Protocol: A) PP1M 5 μg (track 1), 10 μg bacterial extract containing M110-(R714-I1004) (track 2), MBP-M110-(R714-I004) 1 μg (track 3), MBP-M110-(R714-L934) 1 μg (track 4), MBP-M110-(K933-I1004) 1 μg (track 5), MBP 1 μg (track 6), M110-(M1-E309) 2 μg (lane 7) and M110-(M1-S477) 2 μg (track 8) were run on a 12% SDS/polyacrylamide gel and stained with Coomassie Blue. B) same as A) except that 10-fold less protein was electrophoresed and after transfer to nitrocellulose the proteins were probed with digoxigenin-labelled M21 subunit (0.2 μg/ml). C) same as B) except that, after electrophoresis, the proteins were transferred to nitrocellulose and probed with digoxigenin-labelled M21-(M1-L146) (0.2 μg/ml).
A) GST-M21 5 μg (track 1), M21 5 μg (track 2), M21-(M1-L146) 5 μg (track 3), M21-(M1-E110) 20 μg (track 4) and M21-(E110-K186) 5 μg (track 5) were run on 16.5% polyacrylamide gels and stained with Coomassie Blue. The marker proteins ovalbumin (43 kDa) and carbonic anhydrase (29 kDa) are indicated. B) GST-M21 0.5 μg (track 1), M21 0.5 μg (track 2), M21-M1-L146) 0.5 μg (track 3), M21-(M1-E110) 5 μg (track 4) and M21-(E110-K186) 5 μg (track 5) were electrophoresed as in A) and after transfer to nitrocellulose the blots were probed with digoxigenin-labelled MBP-M110-(K933-I1004) (0.2 μg/Ml). C) same as B) except that, after electrophoresis, the proteins were transferred to nitrocellulose and probed with digoxigenin-labelled M21 subunit (0.2 μg/ml).
PP1M (0.5 μAg) was electrophoresed on a 12% SDS/polyacrylamide gel, transferred to nitrocellulose and probed with digoxigenin-labelled M21 subunit (0.2 μg/ml) (track 1) or digoxigenin-labelled M21-(M1-L146) (0.2 μg/ml) (track 2). The positions of the M110 subunit, the M21 subunit and PP1c are marked.
Proteins were labelled with digoxigenin and Far Western analyses carried out as described, except that the digoxigenin-labelled probe was used at a concentration of 0.2 μg/ml instead of 2 μg/ml. SDS/polyacrylamide gel electrophoresis was carried out on 7.5-15% gels according to Laemmli and on 16.5% gels according to Schagger and von Jagow. Protein was estimated according to Bradford.

M21 subunit, sequence (as listed by the source): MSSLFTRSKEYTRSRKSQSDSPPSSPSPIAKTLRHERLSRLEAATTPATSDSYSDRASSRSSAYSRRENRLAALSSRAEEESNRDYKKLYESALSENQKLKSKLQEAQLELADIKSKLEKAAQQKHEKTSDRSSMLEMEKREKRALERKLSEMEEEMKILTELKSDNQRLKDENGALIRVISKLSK

Molecule | recognised by digoxigenin-labelled M21 subunit in Far Western blotting | digoxigenin-labelled probe recognises the full length M21 subunit and M21(M1-L146) in Far Western blotting
B1 | not | –
B2 | – | not
B3 | – | recognised
B4 | – | recognised
B5 | recognised | –
